Publication PMC4358365, “Conserved mechanisms of microtubule-stimulated ADP release, ATP binding, and force generation in transport kinesins” (eLife, 2014)

Biological target: paclitaxel-stabilised microtubule polymerised from bovine αβ-tubulin (bovine) (UniProt Q6B856)
Chain of UniProt Q6B856 (Q6B856 whole entry, looked up): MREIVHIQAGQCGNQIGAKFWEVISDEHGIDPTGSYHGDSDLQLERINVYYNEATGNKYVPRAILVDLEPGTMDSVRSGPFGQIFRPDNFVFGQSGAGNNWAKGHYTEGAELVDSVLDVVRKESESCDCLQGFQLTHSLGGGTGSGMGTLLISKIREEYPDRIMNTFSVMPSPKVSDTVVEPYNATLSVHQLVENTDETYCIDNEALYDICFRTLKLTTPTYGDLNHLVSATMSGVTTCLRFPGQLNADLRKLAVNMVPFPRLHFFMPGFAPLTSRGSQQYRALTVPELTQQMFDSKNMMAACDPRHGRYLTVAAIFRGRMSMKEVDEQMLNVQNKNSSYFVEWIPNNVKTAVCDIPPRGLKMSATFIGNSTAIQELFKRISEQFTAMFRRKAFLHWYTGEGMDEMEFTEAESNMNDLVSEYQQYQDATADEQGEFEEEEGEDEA

Row | K (0.5 MT) of the steady-state MT-activated ATPase (10 nM motor domain, paclitaxel-stabilised MTs, 20°C) [µM] | Molecule
1 | 12.7 | human kinesin-1 (Kin1) motor domain construct (Kif5A, residues 1–340) (from UniProt Q12840 1-340) (domain or fragment)
2 | 0.0537 | human kinesin-3 (Kin3) motor domain construct (Kif1A, residues 1–361) (domain or fragment) MAGASVKVAVRVRPFNSREMSRDSKCIIQMSGSTTTIVNPKQPKETPKSFSFDYSYWSHTSPEDINYASQKQVYRDIGEEMLQHAFEGYNVCIFAYGQTGAGKSYTMMGKQEKDQQGIIPQLCEDLFSRINDTTNDNMSYSVEVSYMEIYCERVRDLLNPKNKGNLRVREHPLLGPYVEDLSKLAVTSYNDIQDLMDSGNKARTVAATNMNETSSRSHAVFNIIFTQKRHDAETNITTEKVSKISLVDLAGSERADSTGAKGTRLKEGANINKSLTTLGKVISALAEMDSGPNKNKKKKKTDFIPYRDSVLTWLLRENLGGNSRTAMVAALSPADINYDETLSTLRYADRAKQIRCNAVIN
